These results are taken from patent publication US9782454B2 (LONGEVITY BIOTECH, INC., priority 2010, dated 2017).

Non-standard residues stand in square brackets, D forms with d. No end group written: not given here. ACPC = cyclic beta amino acid; APC = cyclic beta amino acid

For assay [1], the target named is T1, Glucagon receptor (Rattus norvegicus, UniProt P30082).
T1 construct: Enhances glucose-stimulated; from tissue; host or cells: rat liver membranes (value quoted from the literature)
Conditions: cited from earlier work.

Assay [2] concerns the target T2, VIPR1 (Homo sapiens, UniProt P32241).
T2 sequence (P32241 31-457): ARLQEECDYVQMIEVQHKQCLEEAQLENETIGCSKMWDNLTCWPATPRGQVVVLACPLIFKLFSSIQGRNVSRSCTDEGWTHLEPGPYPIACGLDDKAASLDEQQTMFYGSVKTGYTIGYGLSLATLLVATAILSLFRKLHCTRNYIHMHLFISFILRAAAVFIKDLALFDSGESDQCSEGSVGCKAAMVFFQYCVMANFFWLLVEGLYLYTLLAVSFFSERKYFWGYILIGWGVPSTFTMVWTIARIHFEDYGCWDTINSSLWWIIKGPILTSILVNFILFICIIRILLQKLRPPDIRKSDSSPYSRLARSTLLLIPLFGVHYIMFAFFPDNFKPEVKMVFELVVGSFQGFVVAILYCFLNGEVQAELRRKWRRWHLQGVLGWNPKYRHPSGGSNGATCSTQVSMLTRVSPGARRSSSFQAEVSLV
The assay is described as follows: cAMP Hunter cell line, HitHunter cAMP XS+ assay, agonist mode. The assay is classed as cell-based. Conditions: for % Activity / Mean RLU: VIPR1 cells, cAMP. The procedure: (§1) Once it was established that the cells were healthy and growing normally, cells were passaged from flasks using cell dissociation reagent buffer and seeded into white walled clear bottom 384-well microplates for compound profiling. For profiling, cells were seeded at a density of 10,000 cells per well in a total volume of 20 μL and were allowed to adhere and recover overnight prior to compound addition. cAMP modulation was determined using the DiscoveRx HitHunter cAMP XS+ assay.
(§2) For profiling compound in agonist mode, the cells were incubated in the presence of compound at 37° C. for 30 minutes. […] After appropriate compound incubation, assay signal was generated through incubation with DiscoverX lysis cocktail according to the manufacturers standard protocol. Dose curves were plotted using GraphPad Prism or Activity Base. Percentage activity is calculated using the following formula: % Activity=100%×(mean RLU of test sample−mean RLU of vehicle control)/(mean RLU of MAX control−mean RLU of vehicle control).

For assay [3], the target named is T3, VIPR2 (Homo sapiens, UniProt P41587).
T3 sequence (P41587 24-438): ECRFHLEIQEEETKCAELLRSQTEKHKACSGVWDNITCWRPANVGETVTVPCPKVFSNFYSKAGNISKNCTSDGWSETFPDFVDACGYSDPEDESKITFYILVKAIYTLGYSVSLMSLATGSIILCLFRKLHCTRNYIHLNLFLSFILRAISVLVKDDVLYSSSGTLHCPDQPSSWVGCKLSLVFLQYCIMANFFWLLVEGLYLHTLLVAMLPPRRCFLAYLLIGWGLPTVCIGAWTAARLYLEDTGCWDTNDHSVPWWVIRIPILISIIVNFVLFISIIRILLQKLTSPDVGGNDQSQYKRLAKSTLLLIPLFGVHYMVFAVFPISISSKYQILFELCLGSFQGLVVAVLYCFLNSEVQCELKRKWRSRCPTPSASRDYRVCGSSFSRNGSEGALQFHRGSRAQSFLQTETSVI
Described as above. The assay is classed as cell-based. The procedure: as §1, §2

Assay [4] addresses VIPR2 (VPAC2) receptor, cAMP Hunter cell line expressing VIPR2 (UniProt P41587). Put plainly: cell-based or functional assay.
Assay [5] has as its target AKT (Homo sapiens, UniProt P31749). Conditions: read-out: Ki, competitive inhibition of histone H2B phosphorylation by AKT; cited from earlier work.
In assay [6] the target is T4, CRF2β (Homo sapiens, UniProt Q13324).
T4 sequence (Q13324 1-438 isoform Q13324-2): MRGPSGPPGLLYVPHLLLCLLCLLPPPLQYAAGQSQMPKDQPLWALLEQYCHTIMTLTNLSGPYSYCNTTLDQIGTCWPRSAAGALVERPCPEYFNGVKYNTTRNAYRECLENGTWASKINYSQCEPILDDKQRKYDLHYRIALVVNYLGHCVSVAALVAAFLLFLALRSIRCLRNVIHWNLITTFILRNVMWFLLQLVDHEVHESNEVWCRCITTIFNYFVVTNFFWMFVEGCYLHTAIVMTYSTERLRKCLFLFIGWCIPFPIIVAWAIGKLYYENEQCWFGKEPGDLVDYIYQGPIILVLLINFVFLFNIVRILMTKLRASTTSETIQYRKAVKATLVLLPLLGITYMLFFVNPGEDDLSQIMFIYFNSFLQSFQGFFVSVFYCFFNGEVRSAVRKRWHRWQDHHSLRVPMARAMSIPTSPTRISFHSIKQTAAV
As to conditions: cited from earlier work.

Assay [7] has as its target T5, CRF2α (Homo sapiens, UniProt Q13324).
T5 sequence (Q13324 1-411): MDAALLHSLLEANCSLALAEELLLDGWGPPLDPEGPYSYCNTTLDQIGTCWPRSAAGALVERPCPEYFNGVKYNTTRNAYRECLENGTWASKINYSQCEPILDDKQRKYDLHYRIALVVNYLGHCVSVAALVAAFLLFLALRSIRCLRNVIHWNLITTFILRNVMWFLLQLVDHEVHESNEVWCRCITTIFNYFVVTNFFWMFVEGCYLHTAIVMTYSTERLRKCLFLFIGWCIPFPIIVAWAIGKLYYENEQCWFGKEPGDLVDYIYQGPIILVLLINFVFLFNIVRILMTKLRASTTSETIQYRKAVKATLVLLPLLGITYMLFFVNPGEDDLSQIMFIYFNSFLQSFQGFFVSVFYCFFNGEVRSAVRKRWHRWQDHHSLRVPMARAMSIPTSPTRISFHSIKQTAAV
Conditions: cited from earlier work.

In assay [8] the target is T6, VIPR1 (VPAC1) receptor, cAMP Hunter cell line expressing VIPR1 (UniProt P32241 31-457, limits assumed).
T6 sequence (looked up): T2 sequence (P32241 31-457)
The assay is described as follows: cell-based or functional assay.

T1 sequence (P30082 27-485): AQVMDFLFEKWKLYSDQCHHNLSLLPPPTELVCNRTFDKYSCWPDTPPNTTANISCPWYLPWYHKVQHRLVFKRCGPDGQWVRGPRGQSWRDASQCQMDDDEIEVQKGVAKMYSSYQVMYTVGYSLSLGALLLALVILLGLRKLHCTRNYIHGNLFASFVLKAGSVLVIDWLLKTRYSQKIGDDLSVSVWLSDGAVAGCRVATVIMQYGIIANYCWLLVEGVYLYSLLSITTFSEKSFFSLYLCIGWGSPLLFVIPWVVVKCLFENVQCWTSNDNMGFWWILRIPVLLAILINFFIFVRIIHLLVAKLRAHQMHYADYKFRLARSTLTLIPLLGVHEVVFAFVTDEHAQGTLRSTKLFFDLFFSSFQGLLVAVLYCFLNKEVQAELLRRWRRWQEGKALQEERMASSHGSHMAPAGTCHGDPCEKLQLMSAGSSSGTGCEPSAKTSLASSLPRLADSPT
Chain of AKT (P31749 whole entry): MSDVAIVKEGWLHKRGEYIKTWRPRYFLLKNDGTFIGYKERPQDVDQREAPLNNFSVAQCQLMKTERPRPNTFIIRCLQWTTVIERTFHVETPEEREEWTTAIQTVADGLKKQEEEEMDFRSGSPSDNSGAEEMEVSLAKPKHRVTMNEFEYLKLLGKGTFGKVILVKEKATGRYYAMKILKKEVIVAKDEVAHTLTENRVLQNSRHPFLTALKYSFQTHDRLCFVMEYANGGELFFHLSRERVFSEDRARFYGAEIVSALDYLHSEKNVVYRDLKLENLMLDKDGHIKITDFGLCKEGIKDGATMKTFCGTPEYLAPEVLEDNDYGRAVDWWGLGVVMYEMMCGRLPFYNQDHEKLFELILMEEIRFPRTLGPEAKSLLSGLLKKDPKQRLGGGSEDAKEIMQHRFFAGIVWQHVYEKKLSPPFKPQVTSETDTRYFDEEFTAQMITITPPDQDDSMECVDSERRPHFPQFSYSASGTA

Regarding des-His1-{Glu9}-Glucagon (1-29) amide, in assay [1], the “agonist activity at the glucagon receptor” value was “activation in rat liver membranes); displays no agonist activity. Enhances glucose-stimulated” and the “pA2 for inhibition of glucagon-induced adenylyl cyclase activation in rat liver membranes” value is “(Glucagon receptor antagonist (pA2 = 7.2 for inhibition of glucagon-induced adenylyl cyclase”.
For `CC[C@H](C)[C@H](NC(=O)[C@H]1CCC[C@@H]1NC(=O)[C@H](CC(N)=O)NC(=O)[C@H](CC(C)C)NC(=O)[C@H](Cc1ccc(O)cc1)NC(=O)[C@H]1CNC[C@@H]1NC(=O)[C@H](CCCCN)NC(=O)[C@@H](NC(=O)[C@H]1CCC[C@@H]1NC(=O)[C@H](CC(C)C)NC(=O)[C@H](CCC(N)=O)NC(=O)[C@H](CCCCN)NC(=O)[C@H]1CNC[C@@H]1NC(=O)[C@H](CC(C)C)NC(=O)[C@H](CCCNC(=N)N)NC(=O)[C@H]1CCC[C@@H]1NC(=O)[C@H](Cc1ccc(O)cc1)NC(=O)[C@H](CC(N)=O)NC(=O)[C@H](CC(=O)O)NC(=O)[C@@H](NC(=O)[C@H](Cc1ccccc1)NC(=O)[C@@H](NC(=O)[C@H](C)NC(=O)[C@H](CC(=O)O)NC(=O)[C@H](CO)NC(=O)[C@@H](N)Cc1c[nH]cn1)C(C)C)[C@@H](C)O)C(C)C)C(=O)N[C@@H](CC(C)C)C(=O)N[C@@H](CC(N)=O)C(N)=O` [Compound 8, HSDAVFTDNYXRLZKQLXVKZYLNXILN], the “% Activity” value in assay [2] (1.03E−07 M compound) was 91.7%; in assay [2] (1.03E−08 M compound), 1.5%; in assay [2] (1.03E−09 M compound), −1.4%; in assay [2] (1.03E−10 M compound), −2.9%; in assay [2] (1.03E−11 M compound) it was −1.5%; in assay [2] (1.03E−12 M compound) it was −1.7%. Further, the “% Activity” value in assay [2] (5.03E−07 M compound) is listed as 99.5%; in assay [2] (5.03E−08 M compound), 83.9%; in assay [2] (5.03E−09 M compound) it was 1.2%; in assay [2] (5.03E−10 M compound), −2.2%. For the same molecule, the “Mean RLU” value was 13700.0 RLU in assay [2] (1.03E−08 M compound); 13500.0 RLU in assay [2] (1.03E−09 M compound); 9960.0 RLU in assay [2] (1.03E−10 M compound); 10500.0 RLU in assay [2] (1.03E−11 M compound); 10340.0 RLU in assay [2] (1.03E−12 M compound); 13200.0 RLU in assay [2] (5.03E−09 M compound). Besides, in assay [2] (5.03E−10 M compound), the “Mean RLU” value was 9520.0 RLU. Besides, the “activation of VIPR1” value in assay [2] (FIG. 3) was “fully activate VIPR1”. In assay [3], the “interaction with VIPR2” value was “does not interact substantially with VIPR2”. The “activation of VIPR2” value in assay [3] (FIG. 3) is “not activate VIPR2”.
As for “VIP analogue Compound 8 (…XRLZKQLXVKZYLNXILN) (peptide)”, in assay [4], the % Activity, cAMP agonist mode, at 1.00E-07 M (block headed Compound ID 9) worked out at 0.4%; the % Activity, cAMP agonist mode, at 1.00E-08 M (block headed Compound ID 9) was 1.2%; the % Activity, cAMP agonist mode, at 1.00E-09 M (block headed Compound ID 9) is 0.4%; the % Activity, cAMP agonist mode, at 1.00E-10 M (block headed Compound ID 9) was -1.1%. In addition, in assay [4], the % Activity, cAMP agonist mode, at 1.00E-11 M (block headed Compound ID 9) was determined as 0.9%; the % Activity, cAMP agonist mode, at 1.00E-12 M (block headed Compound ID 9) was determined as 0.4%; the % Activity, cAMP agonist mode, at 5.00E-07 M (block headed Compound ID 9) is 1.9%; the % Activity, cAMP agonist mode, at 5.00E-08 M (block headed Compound ID 9) amounted to 0.9%. Besides, in assay [4], the % Activity, cAMP agonist mode, at 5.00E-09 M (block headed Compound ID 9) was determined as 0.1%; the % Activity, cAMP agonist mode, at 5.00E-10 M (block headed Compound ID 9) turned out to be 1.5%; the % Inhibition, cAMP antagonist mode against EC80 VIP, at 1.00E-07 M came out at 6.5%; the % Inhibition, cAMP antagonist mode against EC80 VIP, at 1.00E-08 M was found to be 9.4%. Further, in assay [4], the % Inhibition, cAMP antagonist mode against EC80 VIP, at 1.00E-09 M amounted to 6.5%; the % Inhibition, cAMP antagonist mode against EC80 VIP, at 1.00E-10 M was found to be 4.2%; the % Inhibition, cAMP antagonist mode against EC80 VIP, at 1.00E-11 M came out at 8.7%; the % Inhibition, cAMP antagonist mode against EC80 VIP, at 1.00E-12 M came out at 3.7%. In assay [4], the % Inhibition, cAMP antagonist mode against EC80 VIP, at 5.00E-07 M was found to be 8.4%; the % Inhibition, cAMP antagonist mode against EC80 VIP, at 5.00E-08 M turned out to be 6.2%; the % Inhibition, cAMP antagonist mode against EC80 VIP, at 5.00E-09 M amounted to 10.9%; the % Inhibition, cAMP antagonist mode against EC80 VIP, at 5.00E-10 M worked out at 12.7%. Further, in assay [4], the Mean RLU, cAMP agonist mode, at 1.00E-07 M (block headed Compound ID 9) is 8920 RLU; the Mean RLU, cAMP agonist mode, at 1.00E-08 M (block headed Compound ID 9) came to 9560 RLU; the Mean RLU, cAMP agonist mode, at 1.00E-09 M (block headed Compound ID 9) stood at 8560 RLU; the Mean RLU, cAMP agonist mode, at 1.00E-10 M (block headed Compound ID 9) is 7560 RLU. In assay [4], the Mean RLU, cAMP agonist mode, at 1.00E-11 M (block headed Compound ID 9) came to 3280 RLU; the Mean RLU, cAMP agonist mode, at 1.00E-12 M (block headed Compound ID 9) was 9300 RLU; the Mean RLU, cAMP agonist mode, at 5.00E-07 M (block headed Compound ID 9) is 10200 RLU; the Mean RLU, cAMP agonist mode, at 5.00E-08 M (block headed Compound ID 9) was 9200 RLU. In assay [4], the Mean RLU, cAMP agonist mode, at 5.00E-09 M (block headed Compound ID 9) was found to be 8560 RLU; the Mean RLU, cAMP agonist mode, at 5.00E-10 M (block headed Compound ID 9) turned out to be 3920 RLU; the Mean RLU, cAMP antagonist mode against EC80 VIP, at 1.00E-07 M is 79600 RLU; the Mean RLU, cAMP antagonist mode against EC80 VIP, at 1.00E-08 M stood at 77500 RLU. Besides, in assay [4], the Mean RLU, cAMP antagonist mode against EC80 VIP, at 1.00E-09 M turned out to be 79500 RLU; the Mean RLU, cAMP antagonist mode against EC80 VIP, at 1.00E-10 M was 81300 RLU; the Mean RLU, cAMP antagonist mode against EC80 VIP, at 1.00E-11 M worked out at 78000 RLU; the Mean RLU, cAMP antagonist mode against EC80 VIP, at 1.00E-12 M is 81700 RLU. In assay [4], this molecule gave a Mean RLU, cAMP antagonist mode against EC80 VIP, at 5.00E-07 M of 64200 RLU; a Mean RLU, cAMP antagonist mode against EC80 VIP, at 5.00E-08 M of 79500 RLU; a Mean RLU, cAMP antagonist mode against EC80 VIP, at 5.00E-09 M of 76300 RLU; a Mean RLU, cAMP antagonist mode against EC80 VIP, at 5.00E-10 M of 74900 RLU.
Consider “5-TMR-ARKRERTYSFGHHA ({5‑TMR}-ARKRERTYSFGHHA)”, for which, in assay [5], the Ki was 12000 nM.
Take Astressin: the Ki was 1 nM in assay [6] and 1.5 nM in assay [7].
As for HSDAVFTDNY[ACPC]RL[APC]KQL[ACPC]VK[APC]YLN[ACPC]ILN (ends and bridges not checked) [VIP analogue Compound 8 (HSDAVFTDNYXRLZKQLXVKZYLNXILN)], the “EC50, cAMP agonist mode” value in assay [8] is 28 nM.
